Measurements taken from publication PMC6451933.

Target: t-SNARE complex (syntaxin 1 and SNAP25) (UniProt Q16623)
Sequence (Q16623 whole entry, chain 1 of 2): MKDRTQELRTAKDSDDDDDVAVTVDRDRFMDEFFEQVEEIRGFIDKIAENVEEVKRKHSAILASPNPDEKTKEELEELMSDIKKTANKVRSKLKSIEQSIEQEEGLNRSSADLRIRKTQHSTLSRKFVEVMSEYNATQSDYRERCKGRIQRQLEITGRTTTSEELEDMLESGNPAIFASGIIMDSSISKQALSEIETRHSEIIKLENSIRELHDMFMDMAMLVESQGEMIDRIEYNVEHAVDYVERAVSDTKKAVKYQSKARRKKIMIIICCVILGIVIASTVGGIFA
Sequence (chain, as listed by the source, chain 2 of 2): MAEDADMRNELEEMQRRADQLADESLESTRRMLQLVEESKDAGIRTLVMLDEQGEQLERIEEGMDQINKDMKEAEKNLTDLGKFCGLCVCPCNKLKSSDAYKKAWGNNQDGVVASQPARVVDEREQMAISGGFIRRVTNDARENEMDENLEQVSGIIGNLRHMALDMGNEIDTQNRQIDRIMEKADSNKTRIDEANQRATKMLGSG

In the case of “VAMP2 p.Ser75Pro variant (from UniProt P63027 1-116) (natural protein)”, the reconstituted liposome lipid-mixing assay (NBD dequenching), basal fusion without Munc18-1 of v-liposomes with t-SNARE liposomes, against WT VAMP2 was 25%.
